# Experimental data: article PMC5691035 (Nature Communications, 2017)
# Residue numbers refer to the chain shown, from its start.
# B1: 1276 Fab (Fab, V domains shown)
# VH: not shown
# VL: SYVLTQPPSVSVAPGKTAKITCGGNNIGSKSVHWYQQKPGQAPVLVMYYDFDRPSGIPERFSGSNSGNTATLTISRVEAEDEADYYCQVWDSDRYWVFGGGTKLTVL
# notes: source: HEK293F, transiently expressed, purified (LambdaSelect or KappaSelect, MonoS, Superdex 200)
# B2: 1262 Fab (Fab, V domains shown)
# VH: QVQLQESGPGLVKPSGTLSLTCAVSGGSISSSHWWSWVRQPPGKGLEWVGEISLSGSTHYGPSLKSRVSISLDKSMNHFSLRLSSVTAADTAVYYCARESRFYGAYFDYWGQGTLVTVSS
# VL: DIQLTQSPSFLSASVGDRVTITCWASQGINSYLAWYQQKPGKTPKLLIYAASTLQSGVPSRFSGSGSGTEFTLTISSLQPEDFATYYCQQLNSYPCSFGQGTTLEIK
# notes: source: HEK293F, transiently expressed, purified (KappaSelect or LambdaSelect, MonoS, Superdex 200)
# B3: 1268 Fab (Fab, V domains shown)
# VH: EVQLVESGGGLVKPGGSLRLSCAASGFTFSRYSMNWVRQAPGKGLEWVSSISSRSSYKYYVDSVKGRFTISRDNAKNSLYLQMNSLRAEDTAVYYCARDDYGSGSYYYNWLDPWGQGTLVTVSS
# VL: B2 VL with N30S, Y32F, T43A, Q55E, C96R, S97T, T103K, L104V
# notes: as for B2
# B4: 1262 Fab (Fab, V domains shown)
# VH: B2 VH
# VL: B2 VL
# notes: also called mAb 1262; source: HEK293F, transient, purified (KappaSelect or LambdaSelect, MonoS, SEC)
# B5: 1268 Fab (Fab, V domains shown)
# VH: B3 VH
# VL: B2 VL with N30S, Y32F, T43A, Q55E, C96R, S97T, T103K, L104V
# notes: also called mAb 1268; source: HEK293F, transient, purified (KappaSelect or LambdaSelect, MonoS, SEC)
# B6: 1260 Fab (Fab, V domains shown)
# VH: QVQLVQSGAEVKKPGASVKVSCRASGYIFTSYGFSWVRQAPGQGLEWMGWISAYNGNTDYSQKLQGRVTMTTDTSTNTVYMELRTLQSDDTAVYYCARDRGDRLYYYYYYGMDVWGQGTTVTVSS
# VL: not shown
# notes: as for B2
# B7: 1260 Fab (Fab, V domains shown)
# VH: B6 VH
# VL: not shown
# notes: also called mAb 1260; source: HEK293F, transient, purified (KappaSelect or LambdaSelect, MonoS, SEC)
# B8: 1202 Fab (Fab, V domains shown)
# VH: QVQLVESGGDLVKPGGSLRLSCAASGFTFSDHYMNWIRQAPGKGLEWVSYISSSGSTIYYSDSVKGRFTISRDNAKYLLSLQMNSLRAEDTAVYFCARDPMVRGFHDAFDIWGQGTMVTVSS
# VL: SYELTQPPSVSVSPGQTASITCSGDKLGDKYASWYQQKPGQSPVLVIFQDNKRPSGIPERFSGSNSGNTATLTISETQAMDEADYYCQAWDISTAVFGTGTNVT
# notes: as for B1
# B9: 1202 Fab (Fab, V domains shown)
# VH: B8 VH
# VL: B8 VL
# notes: also called mAb 1202; source: HEK293F, transient, purified (KappaSelect or LambdaSelect, MonoS, SEC)
# B10: 1190 Fab (Fab, V domains shown)
# VH: not shown
# VL: SYVLTQPPSVSVAPGQTARITCGGSNIGSKSVHWYQQKPGQTPMLVIYYDYDRPSGIPERFSGSNSGSTATLTISRVEAGDEADYYCQVWDSSSDHVWVFGGGTTLTVL
# notes: as for B1
# B11: 1269 Fab (Fab, V domains shown)
# VH: EVQLVESGGGLVQSGGSLRLSCAASGFTFSRNAMNWVRQAPGKGLEWVSTISGSGDSTYYADSVKGRFTISRDNSKNTLYLQVNSLRAEDTAVYYCAKGDYYFDSGSYSFGMDVWGQGTTVTVSS
# VL: EIVLTQSPGTLSLSPGERATLSCRTSQSVSSSYLAWYQQKPGQAPRLLMYGASSRATGIPDRFSGSGSGTDFTLTISRLEPEDFAVYYCQQYGNSFGQGTRLEIK
# notes: as for B2
# B12: 1269 Fab (Fab, V domains shown)
# VH: B11 VH
# VL: B11 VL
# notes: also called mAb 1269; source: HEK293F, transient, purified (KappaSelect or LambdaSelect, MonoS, SEC)
# B13: 1269 IgG (antibody, V domains shown)
# VH: B11 VH
# VL: B11 VL
# notes: IgG1; also called mAb 1269; source: HEK293, transient, purified from conditioned medium (Protein A); synthesized by LakePharma
# B14: 1245 Fab (Fab, V domains shown)
# VH: QVQLVQSGGEVKKPGASVKVSCKASGYTFTSYGISWVRQAPGQGLEWMGWISAYNGNRKYAQKVQGRVSMTIDTHTSTANMELRSLRSDDTAVYYCAKDRGDGDYRYYYYGMDVWGQGTTVTVSS
# VL: not shown
# notes: as for B2
# B15: 1245 IgG (antibody, V domains shown)
# VH: B14 VH
# VL: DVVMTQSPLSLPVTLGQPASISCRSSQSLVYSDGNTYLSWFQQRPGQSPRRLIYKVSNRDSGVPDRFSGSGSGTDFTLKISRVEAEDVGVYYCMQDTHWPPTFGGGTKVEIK
# notes: IgG1; also called mAb 1245; source: HEK293, transient, purified from conditioned medium (Protein A); synthesized by LakePharma
# B16: 1245 Fab (Fab, V domains shown)
# VH: B14 VH
# VL: not shown
# notes: also called mAb 1245; source: HEK293F, transient, purified (KappaSelect or LambdaSelect, MonoS, SEC)
# B17: 1266 Fab (Fab, V domains shown)
# VH: QVQLQQSGPGLVKPSQTLSLTCAISGDSVSSNSAAWNWIRQSPSRGLEWLGRTYYRSKWYNDYAVSVKSRITINADTSKNQFSLQLNSVTPEDTAVYYCVRDLLGSSGWYVFFDNWGQGTLVTVSS
# VL: SYELTQPPSVSVSPGQSARITCSGDALPMKYAYWYQQKSGQAPVLVIYEDSKRPSGIPERFSGSSSGTMATLTISGAQVEDEADYYCFSTDSSGNHRVFGGGTKLT
# notes: as for B1
# B18: 1267 Fab (Fab, V domains shown)
# VH: QVQLQQSGPGLVKPSQTLSLTCAISGDSVSSNSAAWNWIRQSPSRGLEWLGRTYYRSKWYNDYAVSVRGRITINPDTSKNHFSLQLNSVTPEDTAVYFCARDLMTNSGWYVYFDCWGQGTLVTVSS
# VL: B17 VL
# notes: also called mAb 1267; source: HEK293F, transient, purified (KappaSelect or LambdaSelect, MonoS, SEC)
# B19: 1267 Fab (Fab, V domains shown)
# VH: B18 VH
# VL: B17 VL
# notes: as for B1
# B20: 1266 Fab (Fab, V domains shown)
# VH: B17 VH
# VL: B17 VL
# notes: also called mAb 1266; source: HEK293F, transient, purified (KappaSelect or LambdaSelect, MonoS, SEC)
# Key:
# [1] = molecular target: Pfs25, monomeric, produced in Nicotiana benthamiana (Plasmodium falciparum (NF54; identical …, UniProt P13829); experiment: BLI; settings: both partners purified
# [2] = molecular target: Pfs25, monomeric, Nicotiana benthamiana-produced (Plasmodium falciparum (NF54; identical …, UniProt P13829); experiment: BLI; settings: both partners purified
# Sequence of Pfs25, monomeric, Nicotiana benthamiana-produced (Plasmodium falciparum (P13829 17-196): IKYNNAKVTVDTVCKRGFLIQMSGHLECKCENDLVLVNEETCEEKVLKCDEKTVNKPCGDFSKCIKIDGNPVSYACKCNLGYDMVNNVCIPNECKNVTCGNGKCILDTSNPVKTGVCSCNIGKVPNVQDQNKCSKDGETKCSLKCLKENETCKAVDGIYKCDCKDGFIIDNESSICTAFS
# Sequence of Pfs25, monomeric, produced in Nicotiana benthamiana (Plasmodium falciparum (P13829 22-193): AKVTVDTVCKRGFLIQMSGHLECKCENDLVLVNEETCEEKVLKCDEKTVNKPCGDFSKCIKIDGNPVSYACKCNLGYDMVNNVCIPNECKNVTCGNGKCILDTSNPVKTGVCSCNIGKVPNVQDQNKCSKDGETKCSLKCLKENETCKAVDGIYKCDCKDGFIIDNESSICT
Binder,koff [1] [s⁻¹],kon [1] [M⁻¹ s⁻¹],Kd [1] [nM],binding result [2],Kd [2] [nM]
B1,0.0037,210000,–,–,–
B2,0.0011,80000,12,–,–
B3,0.006,93000,67,–,–
B4,–,–,–,binds,–
B5,–,–,–,binds,–
B6,0.00093,23000,41,–,–
B7,–,–,–,binds,–
B8,0.016,480000,35,–,–
B9,–,–,–,binds,–
B10,0.0021,300000,–,–,–
B11,0.00084,220000,–,–,–
B12,–,–,–,–,3.7
B13,–,–,–,–,< 0.001
B14,0.00038,22000,–,–,–
B15,–,–,–,–,< 0.001
B16,–,–,–,–,31
B17,0.012,420000,31,–,–
B18,–,–,–,binds,–
B19,0.0032,430000,7.9,–,–
B20,–,–,–,binds,–
